Measured values as given in the DeepSol protein solubility set.

Assay: soluble on expression in E. coli; label from the status in PepcDB or PDB records
With “MERSALVTGGASGLGRAAALALKARGYRVVVLDLRREGEDLIYVEGDVTREEDVRRAVARAQEEAPLFAVVSAAGVGLAEKILGKEGPHGLESFRRVLEVNLLGTFNVLRLAAWAMRENPPDAEGQRGVIVNTASVAAFEGQIGQAAYAASKGGVVALTLPAARELAGWGIRVVTVAPGLFDTPLLQGLPEKAKASLAAQVPFPPRLGRPEEYAALVLHILENPMLNGEVVRLDGALRMAPR” the “soluble on expression in E. coli” value was “soluble”.
With “MGSDKIHHHHHHMRCFIGIDLGSTTTKAVVMDENLQILGRGITNSRSNYDTAAAVSKQEALIDTRLTLFRRALGGVPEVAGKVDDILSDLERNFRHVQFLEQLEDLQQTCIANIKGPRFAGREKTVIEALEGTFSRLRDSSAKQYAPGVKRKSDFFRDLAGAEFMSHGEAVCKEAGLGFDLILNVYDKSIIEVENRPPSGDMEGKFVRALEKGTMTGSSILAPVQSALAIPLEETYVVGTGYGRVRLPFPKEHIRSEILCHGLGAHMMYPETRTVLDIGGQDTKGIQVDPVGIVENFQMNDRCAAGCGRYLGYIADEMNMGLHELGPLAMKSNKQVRINSTCTVFAGAELRDRLALGEKREDILAGLHRAIILRAMSILSRAGGVKDQFTFTGGVAKNEAAVRELRKLIKENYGDVTINIDPDSIYTGALGGATFAVRAVVN” the “soluble on expression in E. coli” value was “not soluble”.
With “MRKLTALFVASTLALGAANLAHAADTTTAAPADAKPMMHHKGKFGPHQDMMFKDLNLTDAQKQQIHEIMKGQRDQMKRPPLEERRAMHDIIASDTFDKAKAEAQIAKMEEQRKANMLAHMETQNKIYNILTPEQKKQFNANFEKRLTERPAAKGKMPATAELEHHHHHH” the “soluble on expression in E. coli” value was “soluble”.
In the case of “ELQKKIKAADDIFPNQKKNPDKKDNPNVLEVLGEYGGDGFFPTLGNNGLNIPDQVFQSFNNFQIENYKISDFKVDIASERDIVQHDKFRFSYVVN”, the “soluble on expression in E. coli” value is reported as “soluble”.
For “MGSDKIHHHHHHMNSHWSEYWQQGHTTSFGEALSGNYEGVLKNVWEPVFDGLTENFLVVDVGTGNGSLPLLLRDGLSKVDLTGKVIGVDLAEVTLANSVSNNNQNIDIALMSNTRCEQLPFESNSVDLYISQFGFEYSNIEQSLEEATRVLKDDGQFVIVCHHNRSMILNRNRRILTLIDKDEVNLLINCLGKMANAMGNVSNQEDVERIKKDLQCEQIRAEINDLIKLLVMFDEAAAQDCDLMRFVAQFFKAGLFWPVTKKLEFIEFITIQMDTLKLRLTELVNAAFDETKLATFIAKFHQNNMVLNELKVLKNEQNEVLGWYLHGSKFI”, the “soluble on expression in E. coli” value was “not soluble”.
With “GPVNPAENFRVLVKQKKASFEEASNQLINHIEQFLDTNETPYFMKSIDCIRAFREEAIKFSEEQRFNNFLKALQEKVEIKQLNHFWEIVVQDGITLITKEEASGSSVTAEEAKKFLAPKD” the “soluble on expression in E. coli” value was “soluble”.
For “MGSDKIHHHHHHMNADDAYKPIQRATLSEASWRILRIAQSVELRHPVSHETALAIWGVELPADSDCSVVSLRSSQGGYAGTDVDYGWSGESPAFGHSEHSIRLGQDFPDSDFQYFPDSQAVSRNQIPGLRQSASQPSQFPQSPAKLHTVAQSPARRGRVKKSTSVSADVTVHVWKGLSARHVREVAGVPVLMPVPAWSLAAGRWGIQDIVMVAESLIRHRFATRKGLIEFVKTESVPYRSKCLDALALVQSGSDSPKETEMRLTLVCYGLPIMQPNCVVPGVNFANGAAVTLDLVDAEHRFGLDYQGDHHRTDRAQYRRDQNKLSRLAAAGWTVFSVTQLDLSDELHRAAFAMNVAHALSSIVGRPIGVTTPLPWRKVVLRYRKARKLRLLD”, the “soluble on expression in E. coli” value was “not soluble”.
With “MGSDKIHHHHHHMITYQEQWQKMQMALAIRRIPQAMLFSGSLHCGLIEFTNQVIKLLLCKIKQNEPCLTCMDCQMIERFEHPDVEWIKPERSGGIIKIDQIRGLQSTAFLTPQRTNHKLIIIESAESMNIAASNALLKILEEPAQHTIFILLAQQIGNIPPTVLSRCQITQFAVFDELPCNNLLALGEYYTQELNSTMVFKHSESILEGLIAIIERREHPCTLAAQWIQHELSAFLWFLYLIYSQLQYMHLFRVAYSGTLTKQLNKLSSLLNPVMIFAQVDKINTLLRKLSHNMNINHTLVLEDLLFSLVVDY” the “soluble on expression in E. coli” value was “not soluble”.
In the case of “MNYKLTLHPGSNPVEEFTSIPHGVTSLDLSLNNLYSISTVELIQAFANTPASVTSLNLSGNSLGFKNSDELVQILAAIPANVTSLNLSGNFLSYKSSDELVKTLAAIPFTITVLDLGWNDFSSKSSSEFKQAFSNLPASITSLNLRGNDLGIKSSDELIQILAAIPANVNSLNLRGNNLASKNCAELAKFLASIPASVTSLDLSANLLGLKSYAELAYIFSSIPNHVVSLNLCLNCLHGPSLENLKLLKDSLKHLQTVYLDYDIVKNMSKEQCKALGAAFPNIQKIILVDKNGKEIHPSHSIPISNLIRELSGKADVPSLLNQCLIFAQKHQTNIEDLNIPDELRESIQTCKPLLEHHHHHH”, the “soluble on expression in E. coli” value is reported as “soluble”.
With “MPAHRSDPTSSVIELNDVVFCWPGASSPTLDIAHLQIARGEHLFVKGPSGCGKSTLLSLLTGINTATQGVVSLLGSDLSRLSASQRDRFRADHIGYIFQQFNLLPYLSVLDNVTLPCHFSALRKQQVDGPLSHKAQSLLERLHLPSALLNKPVTELSIGQQQRVAAARALMGEPQLIIADEPTSALDYDNREAFIALLREEAERVGSTLVFVSHDPTLEKLFERSVHLPTLNRAGGWQ” the “soluble on expression in E. coli” value was “not soluble”.
With “YPPSMDWRKKGNFVSPVKNQGSCGSCWTFSTTGALESAVAIATGKMLSLAEQQLVDCAQNFNNHGCQGGLPSQAFEYIRYNKGIMGEDTYPYKGQDDHCKFQPDKAIAFVKDVANITMNDEEAMVEAVALYNPVSFAFEVTNDFLMYRKGIYSSTSCHKTPDKVNHAVLAVGYGEENGIPYWIVKNSWGPQWGMNGYFLIERGKNMCGLAACASYPIPLV” the “soluble on expression in E. coli” value was “soluble”.
In the case of “MGSDKIHHHHHHMSASSQSPKGDGLLQTISVKILKRVGKEEVAYVYLGETSRGNLVEFVESIQPPVPREKKWVLIVSTLAGCPVGCLMCDAGGFYRGKLSADEIFEQIDFLVKSRYPNGRIPSEKFKIQFARMGEPALNEAVLDVLKELPARYEAPGLMPSISTVAPCGTDSFFEDLLKIKEKHYRGKFQLQFSIHSTDEKERDQIIPVKKWSLEKISEFGKRFVKENDRKITLNFAVAQEYSLDPKVIIRVFDPEKFLVKITPVNPTYRSKENNLNSDVDVERKELLKHRNFIEELKKAGFEVILSIGELEENKIGSNCGQYVQRHLMSERKIVDGYQYV”, the “soluble on expression in E. coli” value is reported as “not soluble”.
With “MGSDKIHHHHHHMNGNIIVAHGMRHGRQNQALEAFISELVKDDIHHYDIAFLESEHQDLETVMTTLIQSGVDHFKIVPLLIFSAMHYLKDIPNIVHEMKRRYPDIKVEVSEPLGTHPLMRRLIEQRICDALAGDEQQVGVMVVAHGNINGNFTKAHEELQICAQHLQINKPTYARTLYGEISFTHDLESISKRYQKLIVVPLFLYDGRLVNKVKQQMNDMVINTDIHFTPSINFDPILKQIINDRLESLMIPMKI” the “soluble on expression in E. coli” value was “not soluble”.
With “MSTDPEEFDQAETLDQLAYEIILLTRYGVQNTPTNKREAIMDRSALILLTRLDAQGPMTVNELAESFGLNVSTVHRQLKAAIANGLIEVVDDQACPAKLHRPTELGKEKLQQELLARQQDLTRILHDWDEEDIKTHAKLLRKHNESLEEYLDMKWPRP” the “soluble on expression in E. coli” value was “not soluble”.
With “MAHHHHHHMNRWRPFSKVRHFSGLTKLTNVREHQDEIISCIEKVKVVNPLVHCITNRVTTEKVANSLLAFGSSPAMIDNPKEVEQFAEIASCTYFNLGLHTSQVENIHVLDKMRQEKKKEEFILVIDPIAVGATQYRTNLIKDILVKCKPNVIKGNVAEIFYLDKGEFFGKGVDSNSSSSHTPNDIIASARNVALKYNCAVVVTSKADIIVSPCSKFVAQINCDLKILTKITGSGCSVGALCAAATSVIPQNPFIACTAATLIYKLAAFKAYQKETGPGTLSHQIIDNIYFYSNHPHFMNLQLVDVYAVS” the “soluble on expression in E. coli” value was “soluble”.
For “MSLSIPERKEFTKLYDVYDEITSKYYKDTNSTTMIDGAISGMVNSLDDPYSTFMSKKESSEFNDTISASFEGIGAEIQEKDGAIVIVSPIKNSPAEKAGLRPQDIITQVDGKSVKGDTATEATQKIRGEKGTKVTLTIQRSNEDKPFDVTITRDEIPIETVYKEMGSDKIAHVTISTFSETTYDELEKALKSLEKDGMKGLVLDLRGNPGGLLDQAVSISSLFVPDGKIVVQEQDKDGDKSAIKADSSSHGDYKVKVPTTMLIDGGSASASEILAAAAKESGGIKLVGTKSFGKGTVQTATTLSDDSTLKLTVAKWLTPNSEWIHEKGITPDVVVNMPDYATMTIPSSTKVYKNGDFGDDVKTIETLLKALDYNVGKVDGLYDTDTEYAVQRFQTANKLDVTGIMTGVTTDKLVELTQKHLKETDPQLQKAKALVKEGHHHHHH”, the “soluble on expression in E. coli” value was “soluble”.
With “TPTTFVHLFEWNWQDVAQECEQYLGPKGYAAVQVSPPNEHITGSQWWTRYQPVSYELQSRGGNRAQFIDMVNRCSAAGVDIYVDTLINHMAAGSGTGTAGNSFGNKSFPIYSPQDFHESCTINNSDYGNDRYRVQNCELVGLADLDTASNYVQNTIAAYINDLQAIGVKGFRFDASKHVAASDIQSLMAKVNGSPVVFQEVIDQGGEAVGASEYLSTGLVTEFKYSTELGNTFRNGSLAWLSNFGEGWGFMPSSSAVVFVDNHDNQRGHGGAGNVITFEDGRLYDLANVFMLAYPYGYPRVMSSYDFHGDTDAGGPNVPVHNNGNLECFASNWKCEHRWSYIAGGVDFRNNTADNWAVTNWWDNTNNQISFGRGSSGHMAINKEDSTLTATVQTDMASGQYCNVLKGELSADAKSCSGEVITVNSDGTINLNIGAWDAMAIHKNAKLNTSSAS” the “soluble on expression in E. coli” value was “soluble”.
For “MGSDKIHHHHHHMMRLIRDLAQRPNPPDVGFQFVTDEEIGGRHGTGRLRDEGWHCDFMLCLEPTDLGIMFEHKGGMWAQLRIPGRAAHGSRPWEGDNPVYRLMQGIQAISERYPPPTGPHDWRTSVTPTEIRMGAGSRNQVPAEALVTFDIRWTADTTPETIQADLAAAFPDAEFISVMASAGLRTDPEHQEVGRIADIVERHIGHTPRFYREHFATDARYYSHIGIPAICLGPVGAGLHSAEEWVEIASLTSLYQIILDYIDTM”, the “soluble on expression in E. coli” value was “not soluble”.
In the case of “HHHHHHMSKRETFNETFLKAARGEKADHTPVWYMRQAGRSQPEYRKLKEKYGLFEITHQPELCAYVTRLPVEQYGVDAAILYKDIMTPLPSIGVDVEIKNGIGPVIDQPIRSLADIEKLGQIDPEQDVPYVLETIKLLVNEQLNVPLIGFSGAPFTLASYMTEGGPSKNYNKTKAFMYSMPDAWNLLMSKLADMIIVYVKAQIKAGAKAIQIFDSWVGALNQADYRTYIKPVMNRIFSELAKENVPLIMFGVGASHLAGDWHDLPLDVVGLDWRLGIDEARSKGITKTVQGNLDPSILLAPWEVIEQKTKEILDQGMESDGFIFNLGHGVFPDVSPEVLKKLTAFVHEYSQNKKMGQYS”, the “soluble on expression in E. coli” value is reported as “soluble”.
For “MSLSEAGYPRKVMQHAEELHERILSFDSRITVPLDFGTTGNEVDKDGPGQLDLVKAGRGRLSGAALAIFGWPEMWNGPNAPHKPTPGFVDEARHQQEIRYKILTGMVRDFPNQVGIAYSPEDFRRLAMEGKFAIVMSMLNAYPLGDDLSQLDKWAARGVRMFGFSYVGNNDWADSSRPLPFFNDSPDALGGLSPLGKQAVERLNDLGVIIDVSQMSTKALEQVAALSRAPIVASHSAPRALVDIKRNLSDHEMQLIKDSGGVIQVVGFPAYLRPLSKPTLDKLDALRARFDLPPLEGLDYALMPGDPIITIWPEQRFGEYASALYGILEEEPKAGLKELVDAIDYTVKKVGIDHVGISSDFNDGGGVDGWKDVSEIRNVTAELITRGYSDADIAKLWGGNFLRAWGEVQNAPSRQPPPKGIITITTDPNSSSVDKLAAALEHHHHHH”, the “soluble on expression in E. coli” value was “soluble”.
With “MLVKGNEILLKAHKEGYGVGAFNFVNFEMLNAIFEAGNEENSPLFIQASEGAIKYMGIDMAVGMVKIMCERYPHIPVALHLDHGTTFESCEKAVKAGFTSVMIDASHHAFEENLELTSKVVKMAHNAGVSVEAELGRLMGIEDNISVDEKDAVLVNPKEAEQFVKESQVDYLAPAIGTSHGAFKFKGEPKLDFERLQEVKRLTNIPLVLHGASAIPDNVRKSYLDAGGDLKGSKGVPFEFLQESVKGGINKVNTDTDLRIAFIAEVRKVANEDKSQFDLRKFFSPAQLALKNVVKERMKLLGSANKI” the “soluble on expression in E. coli” value was “soluble”.
